In patent US20060193771A1:

What was measured:
CD30-Fc (human) = target: T1, CD30-Fc (human); test: indirect ELISA, CD30-Fc coated
T1 sequence: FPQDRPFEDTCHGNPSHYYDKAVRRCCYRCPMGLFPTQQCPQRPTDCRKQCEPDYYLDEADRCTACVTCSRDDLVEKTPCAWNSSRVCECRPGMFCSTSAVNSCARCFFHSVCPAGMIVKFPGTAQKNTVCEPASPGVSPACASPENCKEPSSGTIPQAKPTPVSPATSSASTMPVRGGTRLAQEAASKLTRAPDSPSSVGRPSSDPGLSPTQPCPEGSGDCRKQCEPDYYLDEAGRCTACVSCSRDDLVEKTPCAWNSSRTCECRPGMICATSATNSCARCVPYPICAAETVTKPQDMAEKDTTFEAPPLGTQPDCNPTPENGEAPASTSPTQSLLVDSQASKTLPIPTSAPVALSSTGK

[1] = target: human CD30, native, expressed on cells (human); test: competitive FACS on L540 cells, unlabeled MAb 2.5 µg/ml; competitor: biotin-T6
[2] = target: human CD30, native, expressed on cells (human); test: competitive FACS on L540 cells, unlabeled MAb 2.5 µg/ml; competitor: biotin-T24
[3] = target: human CD30, native, expressed on cells (human); test: competitive FACS on L540 cells, unlabeled MAb 2.5 µg/ml; competitor: biotin-HRS-4
[4] = target: human CD30, native, expressed on cells (human); test: competitive FACS on L540 cells, unlabeled MAb 2.5 µg/ml; competitor: biotin-T25
[5] = target: human CD30, native, expressed on cells (human); test: FACS, L428 cells, MAb 5 µg/ml, control HeFi-I
[6] = target: human CD30, native, expressed on cells (human); test: competitive FACS on L540 cells, unlabeled MAb 2.5 µg/ml; competitor: biotin-HeFi-I
[7] = target: human CD30, native, expressed on cells (human); test: FACS, L540 cells, MAb 5 µg/ml, control HeFi-I
[8] = target: human CD30, native, expressed on cells (human); test: competitive FACS on L540 cells, unlabeled MAb 2.5 µg/ml; competitor: biotin-T14
[9] = target: T2, recombinant soluble CD30 (sCD30) produced in E. coli (human); test: indirect ELISA, sCD30 coated
T2 sequence: T1 sequence

[10] = target: transferrin receptor on L540 cells (UniProt P02786); test: cell-based or functional assay
[11] = target: human CD30, native, expressed on cells (human); test: FACS, L428 cells, control HeFi-I
[12] = target: human CD30, native, expressed on cells (human); test: FACS, L540 cells, control HeFi-I

Sequence of transferrin receptor on L540 cells (P02786 whole entry): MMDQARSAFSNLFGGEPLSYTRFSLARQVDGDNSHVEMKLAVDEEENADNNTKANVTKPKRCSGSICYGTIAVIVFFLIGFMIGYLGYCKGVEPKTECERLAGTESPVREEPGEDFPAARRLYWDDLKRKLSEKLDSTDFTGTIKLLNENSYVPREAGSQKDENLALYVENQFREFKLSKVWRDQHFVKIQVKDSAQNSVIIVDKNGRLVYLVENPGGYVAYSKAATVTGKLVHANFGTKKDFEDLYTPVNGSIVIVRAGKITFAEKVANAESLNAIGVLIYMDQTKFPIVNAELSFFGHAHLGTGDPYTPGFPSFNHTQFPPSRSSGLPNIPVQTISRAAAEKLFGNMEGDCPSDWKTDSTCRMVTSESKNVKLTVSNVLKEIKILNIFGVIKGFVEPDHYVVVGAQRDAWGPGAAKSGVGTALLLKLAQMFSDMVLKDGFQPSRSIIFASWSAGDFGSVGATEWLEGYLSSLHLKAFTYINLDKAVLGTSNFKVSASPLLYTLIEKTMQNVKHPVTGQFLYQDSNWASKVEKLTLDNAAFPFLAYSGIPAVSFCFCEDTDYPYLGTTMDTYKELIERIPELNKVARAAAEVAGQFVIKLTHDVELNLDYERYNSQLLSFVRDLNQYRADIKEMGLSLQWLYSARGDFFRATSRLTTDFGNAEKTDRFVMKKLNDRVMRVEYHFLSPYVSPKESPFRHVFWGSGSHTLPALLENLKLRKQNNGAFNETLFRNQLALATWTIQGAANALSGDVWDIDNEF
Sequence of HB21(scFv)-PE40 (P11439 278-638): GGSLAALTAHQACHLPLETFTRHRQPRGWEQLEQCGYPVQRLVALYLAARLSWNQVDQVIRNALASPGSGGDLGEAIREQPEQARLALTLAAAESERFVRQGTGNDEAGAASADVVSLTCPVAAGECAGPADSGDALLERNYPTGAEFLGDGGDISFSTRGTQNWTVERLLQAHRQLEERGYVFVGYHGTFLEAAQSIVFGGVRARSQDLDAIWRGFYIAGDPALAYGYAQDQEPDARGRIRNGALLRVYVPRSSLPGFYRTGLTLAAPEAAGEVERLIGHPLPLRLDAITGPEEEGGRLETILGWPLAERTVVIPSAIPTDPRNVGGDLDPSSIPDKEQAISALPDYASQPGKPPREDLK

| titer in ELISA (CD30-Fc (human)) | inhibition of the binding of biotin-MAb (%) [1] | inhibition of the binding of biotin-MAb (%) [2] | inhibition of the binding of biotin-MAb (%) [3] | inhibition of the binding of biotin-MAb (%) [4] | relative reactivity in FACS (% of control) [5] | inhibition of the binding of biotin-MAb (%) [6] | relative reactivity in FACS (% of control) [7] | inhibition of the binding of biotin-MAb (%) [8] | titer in ELISA [9] | Substance | IC50 (ng/ml) in cytotoxicity test, A431/CD25 cells [10] | IC50 (ng/ml) in cytotoxicity test, A431/CD30 cells [10] | IC50 (ng/ml) in cytotoxicity test, HUT102W cells [10] | IC50 (ng/ml) in cytotoxicity test, SUDHL-1 cells [10] | IC50 (ng/ml) in cytotoxicity test, SUP-M2 cells [10] | relative reactivity in FACS (% of control) [11] | relative reactivity in FACS (% of control) [12] |
| --- | --- | --- | --- | --- | --- | --- | --- | --- | --- | --- | --- | --- | --- | --- | --- | --- | --- |
| 75 mL/µg | 75.6% | 18.2% | 80.3% | 23.3% | 160 % of control | 0% | 111 % of control | 108% | 50 mL/µg | Ber-H2 MAb (antibody) | – | – | – | – | – | – | – |
| – | – | – | – | – | – | – | – | – | – | HB21(scFv)-PE40 (from UniProt P11439 278-638) | 0.03 ng/mL | 0.02 ng/mL | 1.5 ng/mL | 0.05 ng/mL | 0.02 ng/mL | – | – |
| 50 mL/µg | 87.4% | 3.9% | 82.6% | 25% | – | 0% | – | 108% | – | HRS-4 MAb (antibody) | – | – | – | – | – | – | – |
| – | – | – | – | – | – | – | – | – | – | control mouse IgG1 (antibody) | – | – | – | – | – | 16 % of control | 0.2 % of control |
